# Source: patent EP4663654A1 (Hangzhou Sciwind Biosciences Co., Ltd., dated 2025)
# Starred links: 1 amine or outer side, 2 acyl side, 3 side chain; linkers in the order of their positions; H or OH if unused. Non-standard residues stand in square brackets, D forms with d. *: point of attachment. C20 diacid = O=C(O)CCCCCCCCCCCCCCCCCCC(=O)*; γGlu = O=C(O)[C@H](CCC(=O)[*:2])N[*:1]; βAsp = O=C(O)[C@H](CC(=O)[*:2])N[*:1]; Hyp = O=C(O)[C@@H]1C[C@@H](O)CN1
# B1: polypeptide derivative M13 (peptide)
# peptide: {C20 diacid}-DASQLSTAATQRLADFLRHFTDRDRDILPPTNVGSNTP-NH2
# SMILES: CC[C@H](C)[C@H](NC(=O)[C@H](CC(=O)O)NC(=O)[C@H](CCCNC(=N)N)NC(=O)[C@H](CC(=O)O)NC(=O)[C@H](CCCNC(=N)N)NC(=O)[C@H](CC(=O)O)NC(=O)[C@@H](NC(=O)[C@H](Cc1ccccc1)NC(=O)[C@H](Cc1c[nH]cn1)NC(=O)[C@H](CCCNC(=N)N)NC(=O)[C@H](CC(C)C)NC(=O)[C@H](Cc1ccccc1)NC(=O)[C@H](CC(=O)O)NC(=O)[C@H](C)NC(=O)[C@H](CC(C)C)NC(=O)[C@H](CCCNC(=N)N)NC(=O)[C@H](CCC(N)=O)NC(=O)[C@@H](NC(=O)[C@H](C)NC(=O)[C@H](C)NC(=O)[C@@H](NC(=O)[C@H](CO)NC(=O)[C@H](CC(C)C)NC(=O)[C@H](CCC(N)=O)NC(=O)[C@H](CO)NC(=O)[C@H](C)NC(=O)[C@H](CC(=O)O)NC(=O)CCCCCCCCCCCCCCCCCCC(=O)O)[C@@H](C)O)[C@@H](C)O)[C@@H](C)O)C(=O)N[C@@H](CC(C)C)C(=O)N1CCC[C@H]1C(=O)N1CCC[C@H]1C(=O)N[C@H](C(=O)N[C@@H](CC(N)=O)C(=O)N[C@H](C(=O)NCC(=O)N[C@@H](CO)C(=O)N[C@@H](CC(N)=O)C(=O)N[C@H](C(=O)N1CCC[C@H]1C(N)=O)[C@@H](C)O)C(C)C)[C@@H](C)O
# B2: polypeptide derivative M8 (peptide)
# peptide: {C20 diacid-γGlu}-ASQLSTAVTQRLADFLRHFTDRDRDILPPTNVGSNTP-NH2
# SMILES: CC[C@H](C)[C@H](NC(=O)[C@H](CC(=O)O)NC(=O)[C@H](CCCNC(=N)N)NC(=O)[C@H](CC(=O)O)NC(=O)[C@H](CCCNC(=N)N)NC(=O)[C@H](CC(=O)O)NC(=O)[C@@H](NC(=O)[C@H](Cc1ccccc1)NC(=O)[C@H](Cc1c[nH]cn1)NC(=O)[C@H](CCCNC(=N)N)NC(=O)[C@H](CC(C)C)NC(=O)[C@H](Cc1ccccc1)NC(=O)[C@H](CC(=O)O)NC(=O)[C@H](C)NC(=O)[C@H](CC(C)C)NC(=O)[C@H](CCCNC(=N)N)NC(=O)[C@H](CCC(N)=O)NC(=O)[C@@H](NC(=O)[C@@H](NC(=O)[C@H](C)NC(=O)[C@@H](NC(=O)[C@H](CO)NC(=O)[C@H](CC(C)C)NC(=O)[C@H](CCC(N)=O)NC(=O)[C@H](CO)NC(=O)[C@H](C)NC(=O)CC[C@H](NC(=O)CCCCCCCCCCCCCCCCCCC(=O)O)C(=O)O)[C@@H](C)O)C(C)C)[C@@H](C)O)[C@@H](C)O)C(=O)N[C@@H](CC(C)C)C(=O)N1CCC[C@H]1C(=O)N1CCC[C@H]1C(=O)N[C@H](C(=O)N[C@@H](CC(N)=O)C(=O)N[C@H](C(=O)NCC(=O)N[C@@H](CO)C(=O)N[C@@H](CC(N)=O)C(=O)N[C@H](C(=O)N1CCC[C@H]1C(N)=O)[C@@H](C)O)C(C)C)[C@@H](C)O
# B3: polypeptide derivative M12 (peptide)
# peptide: {C20 diacid-βAsp}-ASQLSTAATQRLADFLRHFTDRDRDILPPTNVGSNTP-NH2
# SMILES: CC[C@H](C)[C@H](NC(=O)[C@H](CC(=O)O)NC(=O)[C@H](CCCNC(=N)N)NC(=O)[C@H](CC(=O)O)NC(=O)[C@H](CCCNC(=N)N)NC(=O)[C@H](CC(=O)O)NC(=O)[C@@H](NC(=O)[C@H](Cc1ccccc1)NC(=O)[C@H](Cc1c[nH]cn1)NC(=O)[C@H](CCCNC(=N)N)NC(=O)[C@H](CC(C)C)NC(=O)[C@H](Cc1ccccc1)NC(=O)[C@H](CC(=O)O)NC(=O)[C@H](C)NC(=O)[C@H](CC(C)C)NC(=O)[C@H](CCCNC(=N)N)NC(=O)[C@H](CCC(N)=O)NC(=O)[C@@H](NC(=O)[C@H](C)NC(=O)[C@H](C)NC(=O)[C@@H](NC(=O)[C@H](CO)NC(=O)[C@H](CC(C)C)NC(=O)[C@H](CCC(N)=O)NC(=O)[C@H](CO)NC(=O)[C@H](C)NC(=O)C[C@H](NC(=O)CCCCCCCCCCCCCCCCCCC(=O)O)C(=O)O)[C@@H](C)O)[C@@H](C)O)[C@@H](C)O)C(=O)N[C@@H](CC(C)C)C(=O)N1CCC[C@H]1C(=O)N1CCC[C@H]1C(=O)N[C@H](C(=O)N[C@@H](CC(N)=O)C(=O)N[C@H](C(=O)NCC(=O)N[C@@H](CO)C(=O)N[C@@H](CC(N)=O)C(=O)N[C@H](C(=O)N1CCC[C@H]1C(N)=O)[C@@H](C)O)C(C)C)[C@@H](C)O
# B4: polypeptide derivative M9 (peptide)
# peptide: {C20 diacid-γGlu}-ASQLSTAVLQRLADFLRHSSNNLKPILPPTNVGSNT[Hyp]-NH2
# SMILES: CC[C@H](C)[C@H](NC(=O)[C@@H]1CCCN1C(=O)[C@H](CCCCN)NC(=O)[C@H](CC(C)C)NC(=O)[C@H](CC(N)=O)NC(=O)[C@H](CC(N)=O)NC(=O)[C@H](CO)NC(=O)[C@H](CO)NC(=O)[C@H](Cc1c[nH]cn1)NC(=O)[C@H](CCCNC(=N)N)NC(=O)[C@H](CC(C)C)NC(=O)[C@H](Cc1ccccc1)NC(=O)[C@H](CC(=O)O)NC(=O)[C@H](C)NC(=O)[C@H](CC(C)C)NC(=O)[C@H](CCCNC(=N)N)NC(=O)[C@H](CCC(N)=O)NC(=O)[C@H](CC(C)C)NC(=O)[C@@H](NC(=O)[C@H](C)NC(=O)[C@@H](NC(=O)[C@H](CO)NC(=O)[C@H](CC(C)C)NC(=O)[C@H](CCC(N)=O)NC(=O)[C@H](CO)NC(=O)[C@H](C)NC(=O)CC[C@H](NC(=O)CCCCCCCCCCCCCCCCCCC(=O)O)C(=O)O)[C@@H](C)O)C(C)C)C(=O)N[C@@H](CC(C)C)C(=O)N1CCC[C@H]1C(=O)N1CCC[C@H]1C(=O)N[C@H](C(=O)N[C@@H](CC(N)=O)C(=O)N[C@H](C(=O)NCC(=O)N[C@@H](CO)C(=O)N[C@@H](CC(N)=O)C(=O)N[C@H](C(=O)N1C[C@H](O)C[C@H]1C(N)=O)[C@@H](C)O)C(C)C)[C@@H](C)O
# B5: polypeptide derivative M11 (peptide)
# peptide: {C20 diacid}-EASQLSTAATQRLADFLRHFTDRDRDILPPTNVGSNTP-NH2
# SMILES: CC[C@H](C)[C@H](NC(=O)[C@H](CC(=O)O)NC(=O)[C@H](CCCNC(=N)N)NC(=O)[C@H](CC(=O)O)NC(=O)[C@H](CCCNC(=N)N)NC(=O)[C@H](CC(=O)O)NC(=O)[C@@H](NC(=O)[C@H](Cc1ccccc1)NC(=O)[C@H](Cc1c[nH]cn1)NC(=O)[C@H](CCCNC(=N)N)NC(=O)[C@H](CC(C)C)NC(=O)[C@H](Cc1ccccc1)NC(=O)[C@H](CC(=O)O)NC(=O)[C@H](C)NC(=O)[C@H](CC(C)C)NC(=O)[C@H](CCCNC(=N)N)NC(=O)[C@H](CCC(N)=O)NC(=O)[C@@H](NC(=O)[C@H](C)NC(=O)[C@H](C)NC(=O)[C@@H](NC(=O)[C@H](CO)NC(=O)[C@H](CC(C)C)NC(=O)[C@H](CCC(N)=O)NC(=O)[C@H](CO)NC(=O)[C@H](C)NC(=O)[C@H](CCC(=O)O)NC(=O)CCCCCCCCCCCCCCCCCCC(=O)O)[C@@H](C)O)[C@@H](C)O)[C@@H](C)O)C(=O)N[C@@H](CC(C)C)C(=O)N1CCC[C@H]1C(=O)N1CCC[C@H]1C(=O)N[C@H](C(=O)N[C@@H](CC(N)=O)C(=O)N[C@H](C(=O)NCC(=O)N[C@@H](CO)C(=O)N[C@@H](CC(N)=O)C(=O)N[C@H](C(=O)N1CCC[C@H]1C(N)=O)[C@@H](C)O)C(C)C)[C@@H](C)O
# Molecular target: T1, human amylin receptor (AMY3) on CHO-K1/Ga15/AMY3 amylin receptor/CRE-luc cells (human, UniProt P30988 25-474; O60896 24-148)
# T1 sequence (looked up) 1: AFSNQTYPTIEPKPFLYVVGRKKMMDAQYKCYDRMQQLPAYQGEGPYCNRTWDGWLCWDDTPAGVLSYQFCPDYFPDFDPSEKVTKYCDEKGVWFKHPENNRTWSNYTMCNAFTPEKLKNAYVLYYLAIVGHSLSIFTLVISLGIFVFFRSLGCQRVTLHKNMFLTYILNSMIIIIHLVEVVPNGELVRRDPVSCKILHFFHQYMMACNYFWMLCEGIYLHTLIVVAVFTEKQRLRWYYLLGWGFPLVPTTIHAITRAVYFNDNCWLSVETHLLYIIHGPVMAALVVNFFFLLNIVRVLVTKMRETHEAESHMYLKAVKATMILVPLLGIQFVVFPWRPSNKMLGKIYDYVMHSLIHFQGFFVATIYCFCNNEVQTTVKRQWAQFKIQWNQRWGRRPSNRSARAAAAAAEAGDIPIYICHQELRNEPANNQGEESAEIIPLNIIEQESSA
# T1 sequence (looked up) 2: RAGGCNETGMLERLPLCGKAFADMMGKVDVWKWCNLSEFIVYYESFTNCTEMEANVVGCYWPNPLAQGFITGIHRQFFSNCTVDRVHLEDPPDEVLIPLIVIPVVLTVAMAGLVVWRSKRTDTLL
# Experiment: cell-based or functional assay
Binder,"EC50/nM, CRE-luciferase reporter in amylin receptor/CRE-luc CHO cells [nM]",Relative activity (the EC50 ratio of Cagrilintide to the compound) [%]
B1,0.034,78
B2,0.049,53
B3,0.034,78
B4,0.026,100
B5,0.004,110
